What all share (assay): cell-based or functional assay
In test [1] the target is T1, DDR2(h) (human, UniProt Q16832 422-855, limits assumed).
T1 sequence (looked up): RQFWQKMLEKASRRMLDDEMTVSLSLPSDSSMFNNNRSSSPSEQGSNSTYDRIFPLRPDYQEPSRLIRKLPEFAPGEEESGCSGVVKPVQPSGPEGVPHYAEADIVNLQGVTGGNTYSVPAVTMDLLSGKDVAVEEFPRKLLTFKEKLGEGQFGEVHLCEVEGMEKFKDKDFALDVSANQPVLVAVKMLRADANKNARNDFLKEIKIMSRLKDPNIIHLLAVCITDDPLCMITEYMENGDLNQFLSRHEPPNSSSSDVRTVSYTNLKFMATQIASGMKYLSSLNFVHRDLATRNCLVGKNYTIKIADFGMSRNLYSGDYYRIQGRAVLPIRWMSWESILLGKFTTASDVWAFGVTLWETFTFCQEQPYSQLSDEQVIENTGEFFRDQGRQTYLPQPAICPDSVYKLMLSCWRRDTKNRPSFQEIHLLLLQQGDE

For test [2], the target named is AMPKα2(h) (human, UniProt P54646 1-552).
Sequence of AMPKα2(h) (P54646 whole entry): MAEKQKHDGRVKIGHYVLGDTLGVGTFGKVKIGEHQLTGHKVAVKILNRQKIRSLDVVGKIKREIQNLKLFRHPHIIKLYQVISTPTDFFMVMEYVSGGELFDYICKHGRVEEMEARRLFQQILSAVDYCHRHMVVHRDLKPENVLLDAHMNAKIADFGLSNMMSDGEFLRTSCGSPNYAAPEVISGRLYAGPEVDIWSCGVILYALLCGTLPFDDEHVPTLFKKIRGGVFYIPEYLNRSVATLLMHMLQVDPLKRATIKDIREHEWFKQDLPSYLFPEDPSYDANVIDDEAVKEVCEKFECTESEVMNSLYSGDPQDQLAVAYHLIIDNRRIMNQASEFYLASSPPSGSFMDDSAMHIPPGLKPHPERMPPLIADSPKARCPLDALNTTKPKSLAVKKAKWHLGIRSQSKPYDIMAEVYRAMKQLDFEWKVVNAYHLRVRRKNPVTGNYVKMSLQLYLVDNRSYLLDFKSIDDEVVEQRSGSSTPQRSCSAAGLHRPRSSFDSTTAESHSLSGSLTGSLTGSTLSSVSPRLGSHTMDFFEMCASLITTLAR
The target of test [3] is ZIPK(h) (human, UniProt O43293 1-454, limits assumed).
Sequence of ZIPK(h) (O43293 whole entry): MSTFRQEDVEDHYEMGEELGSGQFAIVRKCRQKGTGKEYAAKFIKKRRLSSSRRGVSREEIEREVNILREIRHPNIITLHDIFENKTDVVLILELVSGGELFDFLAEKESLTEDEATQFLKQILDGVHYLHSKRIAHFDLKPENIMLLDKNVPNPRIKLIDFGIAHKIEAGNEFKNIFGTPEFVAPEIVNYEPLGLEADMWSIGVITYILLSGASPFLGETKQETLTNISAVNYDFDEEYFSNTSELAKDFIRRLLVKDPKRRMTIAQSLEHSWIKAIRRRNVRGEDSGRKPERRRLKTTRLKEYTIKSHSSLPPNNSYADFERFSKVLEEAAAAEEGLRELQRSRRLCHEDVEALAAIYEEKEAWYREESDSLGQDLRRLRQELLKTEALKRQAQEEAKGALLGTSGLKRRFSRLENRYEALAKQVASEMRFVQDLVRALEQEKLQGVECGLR
The target of test [4] is T2, EphB3(h) (human, UniProt P54753 581-998, limits assumed).
T2 sequence (looked up): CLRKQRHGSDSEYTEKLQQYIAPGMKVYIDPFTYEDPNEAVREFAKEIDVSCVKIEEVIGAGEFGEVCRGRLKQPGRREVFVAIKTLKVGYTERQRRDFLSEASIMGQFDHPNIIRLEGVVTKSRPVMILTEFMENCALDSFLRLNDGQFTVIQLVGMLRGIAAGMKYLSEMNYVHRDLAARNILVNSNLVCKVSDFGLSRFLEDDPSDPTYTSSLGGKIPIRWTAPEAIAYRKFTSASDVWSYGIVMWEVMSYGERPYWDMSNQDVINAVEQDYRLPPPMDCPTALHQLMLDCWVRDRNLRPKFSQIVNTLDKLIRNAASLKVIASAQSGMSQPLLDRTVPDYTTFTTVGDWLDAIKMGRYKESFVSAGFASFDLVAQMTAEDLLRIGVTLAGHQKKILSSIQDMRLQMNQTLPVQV

Test [5] has as its target Fer(h) (human, UniProt P16591 541-822, limits assumed).
For test [6], the target named is CK1γ3(h) (human, UniProt Q9Y6M4 1-447).
Sequence of CK1γ3(h) (Q9Y6M4 whole entry): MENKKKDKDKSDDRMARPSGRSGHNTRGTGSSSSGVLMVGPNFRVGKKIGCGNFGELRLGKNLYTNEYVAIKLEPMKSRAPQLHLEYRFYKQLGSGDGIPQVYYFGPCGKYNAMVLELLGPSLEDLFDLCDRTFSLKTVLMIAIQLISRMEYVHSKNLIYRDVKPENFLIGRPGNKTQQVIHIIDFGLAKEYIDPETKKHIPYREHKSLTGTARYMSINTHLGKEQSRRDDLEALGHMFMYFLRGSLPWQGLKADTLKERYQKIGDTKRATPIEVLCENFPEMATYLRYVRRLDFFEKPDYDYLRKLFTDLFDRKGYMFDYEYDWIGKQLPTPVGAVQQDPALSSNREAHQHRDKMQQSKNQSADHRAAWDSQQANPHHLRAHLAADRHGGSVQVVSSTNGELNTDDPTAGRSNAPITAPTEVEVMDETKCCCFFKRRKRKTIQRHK
The target in test [7] is Met(D1246H)(h) (human, UniProt P08581-2 974-1408, limits assumed).
The target in test [8] is T3, CHK1(h) (human, UniProt O14757 1-476).
T3 sequence (looked up): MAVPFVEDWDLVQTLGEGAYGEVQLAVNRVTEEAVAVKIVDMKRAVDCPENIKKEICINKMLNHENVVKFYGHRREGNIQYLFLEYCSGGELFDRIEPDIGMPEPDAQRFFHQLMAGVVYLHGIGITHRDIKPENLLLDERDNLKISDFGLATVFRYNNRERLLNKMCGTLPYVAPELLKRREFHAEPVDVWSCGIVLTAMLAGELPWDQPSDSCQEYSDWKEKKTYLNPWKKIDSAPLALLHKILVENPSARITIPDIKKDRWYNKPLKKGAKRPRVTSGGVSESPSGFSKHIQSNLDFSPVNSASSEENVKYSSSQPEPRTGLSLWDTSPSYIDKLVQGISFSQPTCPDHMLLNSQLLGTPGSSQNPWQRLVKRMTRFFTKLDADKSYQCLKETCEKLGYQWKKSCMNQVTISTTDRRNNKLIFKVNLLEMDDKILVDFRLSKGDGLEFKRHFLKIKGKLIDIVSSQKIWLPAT

Test [9] deals with Rsk1(h) (human, UniProt Q15418 1-735).
Sequence of Rsk1(h) (Q15418 whole entry): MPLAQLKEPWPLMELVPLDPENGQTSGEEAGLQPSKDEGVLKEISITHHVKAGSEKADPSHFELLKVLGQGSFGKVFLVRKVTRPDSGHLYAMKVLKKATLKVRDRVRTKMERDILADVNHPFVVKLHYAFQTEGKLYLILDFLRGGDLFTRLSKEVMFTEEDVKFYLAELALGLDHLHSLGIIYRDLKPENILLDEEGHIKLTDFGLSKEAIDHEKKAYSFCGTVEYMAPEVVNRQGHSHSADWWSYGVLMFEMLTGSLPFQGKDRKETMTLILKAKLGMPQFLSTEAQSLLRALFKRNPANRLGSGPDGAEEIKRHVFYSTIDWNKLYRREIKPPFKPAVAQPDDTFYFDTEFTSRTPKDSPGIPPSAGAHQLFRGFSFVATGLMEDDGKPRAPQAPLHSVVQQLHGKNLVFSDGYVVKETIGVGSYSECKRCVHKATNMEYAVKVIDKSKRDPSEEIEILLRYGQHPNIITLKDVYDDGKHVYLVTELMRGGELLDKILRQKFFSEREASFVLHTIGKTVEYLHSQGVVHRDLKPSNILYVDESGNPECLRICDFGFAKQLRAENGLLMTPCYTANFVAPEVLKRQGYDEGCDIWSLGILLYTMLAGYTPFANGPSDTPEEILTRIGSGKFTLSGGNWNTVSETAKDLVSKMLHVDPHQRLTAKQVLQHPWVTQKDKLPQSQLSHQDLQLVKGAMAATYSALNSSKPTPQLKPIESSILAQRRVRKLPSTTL
Test [10] addresses Fes(h) (human, UniProt P07332 1-822, limits assumed).
The target of test [11] is PDGFRα(V561D)(h) (human, UniProt P16234 550-1089, limits assumed).
Sequence of PDGFRα(V561D)(h) (P16234 550-1089 V561D limits assumed): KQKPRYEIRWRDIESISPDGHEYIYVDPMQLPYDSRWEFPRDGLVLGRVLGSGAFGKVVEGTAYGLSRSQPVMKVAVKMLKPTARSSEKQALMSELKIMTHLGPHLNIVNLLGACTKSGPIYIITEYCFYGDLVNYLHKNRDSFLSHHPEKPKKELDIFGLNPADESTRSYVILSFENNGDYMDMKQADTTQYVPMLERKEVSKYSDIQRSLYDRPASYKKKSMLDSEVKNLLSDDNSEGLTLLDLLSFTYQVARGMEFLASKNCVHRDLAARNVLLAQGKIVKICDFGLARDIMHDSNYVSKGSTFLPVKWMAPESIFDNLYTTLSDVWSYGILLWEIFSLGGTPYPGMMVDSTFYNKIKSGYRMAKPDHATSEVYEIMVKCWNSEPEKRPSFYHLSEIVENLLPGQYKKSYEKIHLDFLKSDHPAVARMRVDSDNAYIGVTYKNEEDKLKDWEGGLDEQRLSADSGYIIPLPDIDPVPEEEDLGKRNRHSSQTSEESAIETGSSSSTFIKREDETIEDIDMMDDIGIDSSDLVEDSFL
The target in test [12] is BRK(h) (human, UniProt Q13882 1-451, limits assumed).
For test [13], the target named is T4, PKCε(h) (human, UniProt Q02156 1-737).
T4 sequence (looked up): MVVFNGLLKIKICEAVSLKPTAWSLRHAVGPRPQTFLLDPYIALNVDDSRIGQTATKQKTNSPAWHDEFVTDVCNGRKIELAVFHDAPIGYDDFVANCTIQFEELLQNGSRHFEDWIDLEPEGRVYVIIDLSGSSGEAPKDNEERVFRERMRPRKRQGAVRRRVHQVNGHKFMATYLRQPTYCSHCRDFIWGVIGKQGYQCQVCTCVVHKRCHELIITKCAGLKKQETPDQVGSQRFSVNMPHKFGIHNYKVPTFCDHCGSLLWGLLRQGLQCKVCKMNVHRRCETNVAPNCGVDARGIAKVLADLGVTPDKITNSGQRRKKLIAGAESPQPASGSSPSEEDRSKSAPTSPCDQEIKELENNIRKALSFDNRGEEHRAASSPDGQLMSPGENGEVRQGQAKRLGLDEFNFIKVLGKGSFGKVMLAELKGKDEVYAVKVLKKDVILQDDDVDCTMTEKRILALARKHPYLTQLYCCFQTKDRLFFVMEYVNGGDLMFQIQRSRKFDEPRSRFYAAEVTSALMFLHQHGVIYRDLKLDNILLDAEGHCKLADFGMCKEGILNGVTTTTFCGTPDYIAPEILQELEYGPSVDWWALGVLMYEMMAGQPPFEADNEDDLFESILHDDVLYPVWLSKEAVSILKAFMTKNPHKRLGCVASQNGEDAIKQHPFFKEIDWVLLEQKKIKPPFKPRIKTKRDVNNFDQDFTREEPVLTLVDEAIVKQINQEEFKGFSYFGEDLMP

Sequence of Fes(h) (P07332 whole entry): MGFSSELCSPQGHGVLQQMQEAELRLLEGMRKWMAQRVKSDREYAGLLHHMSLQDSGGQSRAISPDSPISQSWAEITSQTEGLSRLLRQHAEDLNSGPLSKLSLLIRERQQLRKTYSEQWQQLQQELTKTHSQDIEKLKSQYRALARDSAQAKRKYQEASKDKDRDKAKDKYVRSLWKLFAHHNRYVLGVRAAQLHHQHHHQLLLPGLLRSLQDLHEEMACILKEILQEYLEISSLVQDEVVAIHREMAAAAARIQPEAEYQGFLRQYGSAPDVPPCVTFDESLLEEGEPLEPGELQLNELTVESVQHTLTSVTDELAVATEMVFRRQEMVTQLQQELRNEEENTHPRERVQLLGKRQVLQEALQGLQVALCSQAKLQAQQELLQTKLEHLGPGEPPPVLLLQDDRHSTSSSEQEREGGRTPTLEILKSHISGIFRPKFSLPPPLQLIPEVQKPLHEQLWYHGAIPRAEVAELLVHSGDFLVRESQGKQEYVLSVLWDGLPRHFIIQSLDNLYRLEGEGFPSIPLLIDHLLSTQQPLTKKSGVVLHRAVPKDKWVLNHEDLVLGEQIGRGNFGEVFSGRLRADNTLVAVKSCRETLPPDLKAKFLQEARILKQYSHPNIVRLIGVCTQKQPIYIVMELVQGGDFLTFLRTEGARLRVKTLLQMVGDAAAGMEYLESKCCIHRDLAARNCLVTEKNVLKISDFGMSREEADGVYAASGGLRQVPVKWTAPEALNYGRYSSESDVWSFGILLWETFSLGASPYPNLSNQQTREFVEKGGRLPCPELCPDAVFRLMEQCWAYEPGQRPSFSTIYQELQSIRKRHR
Sequence of Fer(h) (P16591 541-822 limits assumed): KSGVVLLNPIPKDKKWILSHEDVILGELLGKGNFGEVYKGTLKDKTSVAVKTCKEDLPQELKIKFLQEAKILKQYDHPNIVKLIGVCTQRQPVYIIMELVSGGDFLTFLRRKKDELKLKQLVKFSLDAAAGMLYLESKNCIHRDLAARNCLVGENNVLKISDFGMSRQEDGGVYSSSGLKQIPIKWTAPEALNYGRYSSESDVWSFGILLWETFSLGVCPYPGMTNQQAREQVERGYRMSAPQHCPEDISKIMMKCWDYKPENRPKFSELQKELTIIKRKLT

Consider KAFAKLAARLYRKALARQLGVAA [MMI-0400], for which the “% activity, 100 µM” value in [1] was 95%; in [2], 58%; in [3] it was 13%; in test [4], 47%; in [5], 108%; in test [6], 115%. Further, the “% activity, 100 µM” value stood at 68% in test [7]; 87% in [8]; 54% in test [9]; 16% in test [10]; 100% in [11]; 18% in test [12]. Further, the “% activity, 100 µM” value in test [13] was determined as 59%.

On to FAKLAARLYRKALARQLGVAA [MMI-0300], for which the “% activity, 100 µM” value was found to be 94% in test [1]; 54% in test [2]; 28% in test [3]; 62% in test [4]; 130% in test [5]; 125% in test [6]. Besides, the “% activity, 100 µM” value amounted to 125% in test [7]; 91% in [8]; 46% in test [9]; 20% in test [10]; 82% in test [11]; 35% in test [12]. Also, the “% activity, 100 µM” value in test [13] came out at 79%.

The record behind these values is patent publication US20140072613A1 (published 2014).
